Results: patent publication US20220143148A1, “COMPOSITIONS AND METHODS FOR MODULATING CGRP SIGNALING TO REGULATE INTESTINAL INNATE LYMPHOID CELLS” (The Broad Institute, Inc., priority 2019, published 2022)

Tested on: small intestinal immune cells
Test: Droplet-based scRNA-seq of small intestinal immune cells (LP and PP), OVA vs PBS, clustering and differential expression
Format: in vivo, mouse
Description: To comprehensively characterize small intestinal immune cells, Applicants generated scRNA-Seq profiles for 58,067 immune cells collected from lamina propria (LP) and Peyer's patch (PP) regions at steady state and after induction of a type 2 inflammatory reaction to ovalbumin (OVA) (Brandt et al., 2003) (FIGS. 1A and 8A). To ensure sufficient representation of rare cells, Applicants combined a normalization strategy—removing by flow sorting either a portion of IgD+ naïve B cells, which are the most abundant cell type in PPs, or all CD19+ and CD3+ T cells (FIG. 8B, Methods)—with profiling of a sufficiently large number of cells number (P>0.99 to recover at least 15 cells from each cluster, Methods) by massively parallel scRNA-seq (Haber et al., 2017) (Methods). Applicants obtained 36,797 and 21,270 high quality cells passing initial filtering (Methods) from PP and LP regions, respectively.
Overall, Applicants annotated 27 cell subsets across the two compartments, spanning T cells, B cells, ILCs, dendritic cells (DCs), myeloid cells and stromal cells, in frequencies ranging from 0.07% to 14%. Briefly, Applicants first partitioned the cells from the PP regions by unsupervised clustering (Methods) into 46 clusters, retained the 97% of cells that were robustly assigned cell identities in each cluster (Methods), assigned the cells from the LP regions to the 46 clusters using a classifier (Methods), and visualized the data with scvis (Ding et al., 2018), a deep generative model-based method (FIGS. 1B and 8C, Methods). Next, Applicants identified genes that were differentially expressed between the cells in each cluster and the remaining cells (Table 1, Methods), as well as between pairs of clusters (Table 2), to elucidate identities of similar cell types/states. Applicants excluded from downstream analysis clusters mostly consisting of contaminants from epithelium, likely doublets, or cells with a small number of Unique Molecular Identifiers (UMIs) (FIGS. 1C and 8D), or lacking distinct markers (Methods). Altogether, Applicants retained 27 clusters spanning 85% of the cells and each associated with distinct marker genes (FIG. 8E, Methods).
To induce allergic reaction to OVA, 6 to 7 weeks old mice were sensitized twice, two weeks apart, with 50 μg of OVA plus 1 mg of aluminum potassium sulfate adjuvant via intraperitoneal injection. Two weeks later, mice were orally administered with 50 mg of OVA on every other day for a total of five times. 1 μg of α-CGRP peptide was administered simultaneously when indicated. Mice were deprived of food for 3-4 hours in cages with wood chip bedding for limiting antigen degradation in the stomach before each intragastric challenge.
Isolation of cells from Peyer's patches (PPs). Peyer's patches (PPs) were carefully dissected from the small intestine under a stereo microscope using a fine scissor, pierced once with a fine forcep. Tissues were digested in freshly made digestion buffer (RPMI-1640 containing 100 μg/ml Liberase™ and 50 μg/ml DNase I at 37° C. on a roto-mixer. After 15 min, tissues were very gently mixed using a 1 ml pipette. The supernatant was collected and added to ice-cold MACS buffer (pH 7.4; PBS plus 2% FCS and 2 mM EDTA). Pre-warmed (37° C.) fresh digestion buffer was added to the remaining tissues. After rotation at 37° C. for 15 min, the mixture was vigorously mixed using a 1 ml pipette for 1 min. Supernatants from the two steps were combined and passed through 70 μm filters and stained for FACS (below).
Isolation of cells from the lamina propria (LP). The small intestines were opened longitudinally and washed in ice-cold PBS. For scRNA-seq, roughly 0.5 cm of fragments from each of the distal, middle and proximal regions without visible PPs were collected. Epithelial cells were dissociated by tissue rotation in pre-warmed (37° C.) PBS containing 10 mM EDTA at 37° C. for 15 min, followed by additional incubation on ice for 15 min. Tissues were then shaken vigorously. […]

B1: OVA (protein, UniProt P01012 2-386, looked up)
Ovalbumin: GSIGAASMEFCFDVFKELKVHHANENIFYCPIAIMSALAMVYLGAKDSTRTQINKVVRFDKLPGFGDSIEAQCGTSVNVHSSLRDILNQITKPNDVYSFSLASRLYAEERYPILPEYLQCVKELYRGGLEPINFQTAADQARELINSWVESQTNGIIRNVLQPSSVDSQTAMVLVNAIVFKGLWEKAFKDEDTQAMPFRVTEQESKPVQMMYQIGLFRVASMASEKMKILELPFASGTMSMLVLLPDEVSGLEQLESIINFEKLTEWTSSNVMEERKIKVYLPRMKMEEKYNLTSVLMAMGITDVFSSSANLSGISSAESLKISQAVHAAHAEINEAGREVVGSAEAGVDAASVSEEFRADHPFLFCIKHIATNAVLFFGRCVSP
Tsc22d3 LN (average fold change) (PP, cluster ID 9, OVA vs PBS): 1.031 | Tubb5 LN (average fold change) (PP, cluster ID 9, OVA vs PBS): −0.244 | Uba52 LN (average fold change) (PP, cluster ID 9, OVA vs PBS): 0.365 | Ubb LN (average fold change) (PP, cluster ID 9, OVA vs PBS): −0.190 | Wdr89 LN (average fold change) (PP, cluster ID 9, OVA vs PBS): 0.469 | Zfp36l2 LN (average fold change) (PP, cluster ID 9, OVA vs PBS): 1.590 | 1110059E24Rik percentage of expressing cells in OVA-treated group (PP, cluster ID 10): 0.507 | Apobec1 percentage of expressing cells in OVA-treated group (PP, cluster ID 10): 0.807 | Basp1 percentage of expressing cells in OVA-treated group (PP, cluster ID 10): 0.755 | Btg1 percentage of expressing cells in OVA-treated group (PP, cluster ID 10): 0.985 | Cd47 percentage of expressing cells in OVA-treated group (PP, cluster ID 10): 0.602 | Crlf3 percentage of expressing cells in OVA-treated group (PP, cluster ID 10): 0.658 | Ddit4 percentage of expressing cells in OVA-treated group (PP, cluster ID 10): 0.296 | Dusp1 percentage of expressing cells in OVA-treated group (PP, cluster ID 10): 0.451 | Egln2 percentage of expressing cells in OVA-treated group (PP, cluster ID 10): 0.558 | Hspa8 percentage of expressing cells in OVA-treated group (PP, cluster ID 10): 0.975 | Igha percentage of expressing cells in OVA-treated group (PP, cluster ID 10): 0.405 | Napsa percentage of expressing cells in OVA-treated group (PP, cluster ID 10): 0.776 | Ppp1r21 percentage of expressing cells in OVA-treated group (PP, cluster ID 10): 0.165 | Rsrp1 percentage of expressing cells in OVA-treated group (PP, cluster ID 10): 0.722 | Sesn1 percentage of expressing cells in OVA-treated group (PP, cluster ID 10): 0.402 | Sh3glb2 percentage of expressing cells in OVA-treated group (PP, cluster ID 10): 0.187 | Tsc22d3 percentage of expressing cells in OVA-treated group (PP, cluster ID 10): 0.689 | Ttc7 percentage of expressing cells in OVA-treated group (PP, cluster ID 10): 0.244 | Uba52 percentage of expressing cells in OVA-treated group (PP, cluster ID 10): 0.985 | Zfp36l2 percentage of expressing cells in OVA-treated group (PP, cluster ID 10): 0.68 | 1110059E24Rik LN (average fold change) (PP, cluster ID 10, OVA vs PBS): 0.715 | Apobec1 LN (average fold change) (PP, cluster ID 10, OVA vs PBS): 0.309 | Basp1 LN (average fold change) (PP, cluster ID 10, OVA vs PBS): −0.516 | Btg1 LN (average fold change) (PP, cluster ID 10, OVA vs PBS): 0.438 | Cd47 LN (average fold change) (PP, cluster ID 10, OVA vs PBS): 0.638 | Crlf3 LN (average fold change) (PP, cluster ID 10, OVA vs PBS): 0.396 | Ddit4 LN (average fold change) (PP, cluster ID 10, OVA vs PBS): 0.864 | Dusp1 LN (average fold change) (PP, cluster ID 10, OVA vs PBS): 0.614 | Egln2 LN (average fold change) (PP, cluster ID 10, OVA vs PBS): 0.624 | Hspa8 LN (average fold change) (PP, cluster ID 10, OVA vs PBS): −0.286 | Igha LN (average fold change) (PP, cluster ID 10, OVA vs PBS): 0.162 | Napsa LN (average fold change) (PP, cluster ID 10, OVA vs PBS): 0.374 | Ppp1r21 LN (average fold change) (PP, cluster ID 10, OVA vs PBS): 1.045 | Rsrp1 LN (average fold change) (PP, cluster ID 10, OVA vs PBS): −0.187 | Sesn1 LN (average fold change) (PP, cluster ID 10, OVA vs PBS): 1.071 | Sh3glb2 LN (average fold change) (PP, cluster ID 10, OVA vs PBS): 0.383 | Tsc22d3 LN (average fold change) (PP, cluster ID 10, OVA vs PBS): 1.088 | Ttc7 LN (average fold change) (PP, cluster ID 10, OVA vs PBS): 1.338 | Uba52 LN (average fold change) (PP, cluster ID 10, OVA vs PBS): 0.287 | Zfp36l2 LN (average fold change) (PP, cluster ID 10, OVA vs PBS): 1.856 | Jund percentage of expressing cells in OVA-treated group (PP, cluster ID 11): 0.855 | Jund LN (average fold change) (PP, cluster ID 11, OVA vs PBS): −0.624 | 1600014C10Rik: percentage of expressing cells in OVA-treated group (cluster ID 4, PP): 0.185 | 2010300C02Rik: percentage of expressing cells in OVA-treated group (cluster ID 4, PP): 0.518 | 2310001H17Rik: percentage of expressing cells in OVA-treated group (cluster ID 4, PP): 0.214 | 4921524J17Rik: percentage of expressing cells in OVA-treated group (cluster ID 4, PP): 0.161 | Alyref: percentage of expressing cells in OVA-treated group (cluster ID 4, PP): 0.141 | Amd1: percentage of expressing cells in OVA-treated group (cluster ID 4, PP): 0.192 | Asb2: percentage of expressing cells in OVA-treated group (cluster ID 4, PP): 0.548 | Azin1: percentage of expressing cells in OVA-treated group (cluster ID 4, PP): 0.135 | Bin3: percentage of expressing cells in OVA-treated group (cluster ID 4, PP): 0.235 | Bzw1: percentage of expressing cells in OVA-treated group (cluster ID 4, PP): 0.321 | Cacybp: percentage of expressing cells in OVA-treated group (cluster ID 4, PP): 0.293 | Cd69: percentage of expressing cells in OVA-treated group (cluster ID 4, PP): 0.737 | Cdkn1a: percentage of expressing cells in OVA-treated group (cluster ID 4, PP): 0.256 | Clec2d: percentage of expressing cells in OVA-treated group (cluster ID 4, PP): 0.261 | Cwc25: percentage of expressing cells in OVA-treated group (cluster ID 4, PP): 0.12 | D16Ertd472e: percentage of expressing cells in OVA-treated group (cluster ID 4, PP): 0.175 | Dnaja1: percentage of expressing cells in OVA-treated group (cluster ID 4, PP): 0.705 | Dnajb9: percentage of expressing cells in OVA-treated group (cluster ID 4, PP): 0.18 | Egln3: percentage of expressing cells in OVA-treated group (cluster ID 4, PP): 0.172 | Fam46a: percentage of expressing cells in OVA-treated group (cluster ID 4, PP): 0.099 | Fibp: percentage of expressing cells in OVA-treated group (cluster ID 4, PP): 0.178 | Furin: percentage of expressing cells in OVA-treated group (cluster ID 4, PP): 0.382 | Gatad1: percentage of expressing cells in OVA-treated group (cluster ID 4, PP): 0.155 | Gcnt2: percentage of expressing cells in OVA-treated group (cluster ID 4, PP): 0.144 | Gimap3: percentage of expressing cells in OVA-treated group (cluster ID 4, PP): 0.536 | Git2: percentage of expressing cells in OVA-treated group (cluster ID 4, PP): 0.3 | Gnb1: percentage of expressing cells in OVA-treated group (cluster ID 4, PP): 0.419
